Test results published in US20220396813.
Where a chain is given by its changes, count along the chain named.

Key:
Assay in all cases: cell_activity
[1] = test system: T1, Rec29 WP_089415106.1 (Pantoea agglomerans); details: HEK293T inversion; background 1.305
T1 sequence: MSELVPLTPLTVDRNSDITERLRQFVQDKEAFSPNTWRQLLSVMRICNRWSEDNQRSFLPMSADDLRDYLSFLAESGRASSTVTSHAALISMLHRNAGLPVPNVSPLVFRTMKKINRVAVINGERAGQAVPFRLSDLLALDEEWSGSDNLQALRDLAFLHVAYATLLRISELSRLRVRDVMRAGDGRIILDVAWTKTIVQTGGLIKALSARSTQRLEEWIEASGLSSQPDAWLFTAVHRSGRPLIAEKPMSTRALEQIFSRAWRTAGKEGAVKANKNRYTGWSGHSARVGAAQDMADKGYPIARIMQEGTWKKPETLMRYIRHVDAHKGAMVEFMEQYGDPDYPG

Rec142 = molecular target: T2, Rec142 (UniProt A0A0J6VB22); details: HEK293T inversion; background 4.4
T2 sequence: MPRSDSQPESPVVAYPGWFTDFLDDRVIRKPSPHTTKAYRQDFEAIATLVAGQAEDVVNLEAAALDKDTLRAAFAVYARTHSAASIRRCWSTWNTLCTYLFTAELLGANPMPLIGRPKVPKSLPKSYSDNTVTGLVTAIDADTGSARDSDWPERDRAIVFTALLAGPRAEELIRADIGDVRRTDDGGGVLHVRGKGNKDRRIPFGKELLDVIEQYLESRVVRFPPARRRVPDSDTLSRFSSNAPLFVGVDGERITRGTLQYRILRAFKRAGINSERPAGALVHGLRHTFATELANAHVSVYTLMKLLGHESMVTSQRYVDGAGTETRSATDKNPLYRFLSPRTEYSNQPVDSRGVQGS

Rec19 WP_058958135.1 = test system: T3, Rec19 WP_058958135.1; details: HEK293T inversion; background 0.0065
T3 sequence: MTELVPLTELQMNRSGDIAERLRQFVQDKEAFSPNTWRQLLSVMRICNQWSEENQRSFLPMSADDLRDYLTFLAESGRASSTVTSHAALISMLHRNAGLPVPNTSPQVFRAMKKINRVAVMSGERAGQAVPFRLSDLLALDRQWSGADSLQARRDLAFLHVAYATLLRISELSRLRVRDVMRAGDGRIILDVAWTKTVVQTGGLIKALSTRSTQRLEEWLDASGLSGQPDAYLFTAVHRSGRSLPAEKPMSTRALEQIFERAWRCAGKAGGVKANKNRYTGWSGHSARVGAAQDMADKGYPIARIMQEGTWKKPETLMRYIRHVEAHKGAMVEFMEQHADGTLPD

[2] = test system: T4, Rec20 WP_090967054.1 (Pantoea sp. OV426); details: HEK293T inversion; background 4.93
T4 sequence: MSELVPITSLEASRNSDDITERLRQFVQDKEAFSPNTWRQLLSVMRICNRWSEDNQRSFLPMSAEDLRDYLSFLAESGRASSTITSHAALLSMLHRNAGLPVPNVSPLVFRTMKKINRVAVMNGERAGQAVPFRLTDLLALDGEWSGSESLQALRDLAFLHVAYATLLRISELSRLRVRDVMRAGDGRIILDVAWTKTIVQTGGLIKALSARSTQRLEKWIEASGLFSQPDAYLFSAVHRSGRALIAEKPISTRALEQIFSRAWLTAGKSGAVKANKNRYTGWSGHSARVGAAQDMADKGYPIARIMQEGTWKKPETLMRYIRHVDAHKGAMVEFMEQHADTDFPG

[3] = test system: T5, Rec34 WP_109653747.1 (Pantoea agglomerans); details: HEK293T inversion; background 6.6
T5 sequence: T1 sequence with S135T, E142K, S145A, A210T, L225I, A254S, G339S

[4] = test system: T6, Rec39 WP_111138305.1 (Pantoea sp. ARC607); details: HEK293T inversion; background 6.6
T6 sequence: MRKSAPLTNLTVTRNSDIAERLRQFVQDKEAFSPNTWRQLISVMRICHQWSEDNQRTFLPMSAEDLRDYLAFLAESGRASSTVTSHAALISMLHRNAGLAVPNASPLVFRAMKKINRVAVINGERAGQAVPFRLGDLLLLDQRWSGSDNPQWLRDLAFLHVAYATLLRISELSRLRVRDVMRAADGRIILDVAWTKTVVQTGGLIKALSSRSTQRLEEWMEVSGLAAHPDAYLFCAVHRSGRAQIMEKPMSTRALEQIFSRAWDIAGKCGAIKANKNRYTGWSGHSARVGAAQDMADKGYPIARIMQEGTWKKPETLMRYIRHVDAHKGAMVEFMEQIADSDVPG

[5] = test system: T7, Rec31 WP_046103089.1 (Pantoea anthophila); details: HEK293T inversion; background 1.305
T7 sequence: T3 sequence with S135T, G341D, T342A

[6] = test system: T8, Rec32 WP_069027120.1 (Pantoea agglomerans); details: HEK293T inversion; background 6.6
T8 sequence: T1 sequence with R49C, E75Q, S135T, E142K, S145A, A210T, L225I, L244Q, A254S, G339S

[7] = test system: T9, Rec35 WP_134161939.1 (Pantoea allii); details: HEK293T inversion; background 6.6
T9 sequence: T1 sequence with L10Q, S135T, E142K, S145A, A210T, L225I, A231V, A254S, G339S

[8] = test system: T10, Rec36 WP_111534863.1 (Pantoea sp.); details: HEK293T inversion; background 6.6
T10 sequence: T1 sequence with G345D

[9] = test system: T11, Rec33 WP_010671927.1 (Pantoea sp.); details: HEK293T inversion; background 6.6
T11 sequence: T1 sequence with E142K

[10] = test system: T12, Rec38 WP_115764642.1 (Pantoea agglomerans); details: HEK293T inversion; background 6.6
T12 sequence: T1 sequence with T11M, S135T, E142K, S145A, D148E, A152S, A210T, L225I, A254S, G339S

[11] = test system: T13, Rec30 WP_022624268.1 (Pantoea sp.); details: HEK293T inversion; background 1.305
T13 sequence: T1 sequence with G98E, E142K

[12] = test system: T14, Rec37 WP_128085508.1 (Pantoea deleyi); details: HEK293T inversion; background 6.6
T14 sequence: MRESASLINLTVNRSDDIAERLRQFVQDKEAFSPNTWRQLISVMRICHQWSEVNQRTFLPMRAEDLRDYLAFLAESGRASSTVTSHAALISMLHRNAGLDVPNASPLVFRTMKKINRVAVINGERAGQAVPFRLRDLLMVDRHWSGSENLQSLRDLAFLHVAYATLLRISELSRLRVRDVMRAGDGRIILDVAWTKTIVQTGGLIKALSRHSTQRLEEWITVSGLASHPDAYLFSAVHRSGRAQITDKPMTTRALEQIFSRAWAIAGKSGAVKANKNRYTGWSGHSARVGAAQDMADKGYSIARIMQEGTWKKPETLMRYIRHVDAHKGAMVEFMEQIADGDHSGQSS

[13] = test system: T15, Rec15 XP_012333305.1 (Plasmodium fragile); details: HEK293T inversion; background 2.178
T15 sequence: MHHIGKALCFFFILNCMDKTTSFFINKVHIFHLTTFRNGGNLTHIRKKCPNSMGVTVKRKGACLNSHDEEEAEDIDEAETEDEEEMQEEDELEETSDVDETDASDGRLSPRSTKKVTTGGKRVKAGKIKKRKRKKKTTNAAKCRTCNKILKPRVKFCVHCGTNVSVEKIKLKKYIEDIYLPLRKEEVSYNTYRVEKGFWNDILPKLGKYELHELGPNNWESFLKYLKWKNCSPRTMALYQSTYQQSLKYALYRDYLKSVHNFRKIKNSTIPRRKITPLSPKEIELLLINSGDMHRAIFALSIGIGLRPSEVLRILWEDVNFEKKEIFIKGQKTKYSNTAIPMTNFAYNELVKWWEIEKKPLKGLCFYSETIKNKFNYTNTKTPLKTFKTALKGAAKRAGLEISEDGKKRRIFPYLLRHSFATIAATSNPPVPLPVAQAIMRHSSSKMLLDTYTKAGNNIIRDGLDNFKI

Rec82 = details: HEK293T inversion; background 5.03
Rec83 = details: HEK293T inversion; background 5.425

For “ATGACTTCGTATANNNNNNNNTATACGAAGTCAT (double strand) [Rec29 natural site]”, the activity [1] was 36.9 % GFP+.
Sequence “CCGTCATGGATANNNNNNNNTATCCATGAAGC (double strand) [Rec142 natural site]” has an activity (Rec142) of 20.2 % GFP+.
In the case of “TGACTTCGTATANNNNNNNNTATACGAAGCCA (double strand) [Rec19-20 natural site]”, the activity (Rec19 WP_058958135.1) is reported as 63.6 % GFP+ and the activity [2] is reported as 70.7 % GFP+.
“TGACTTCGTATANNNNNNNNTATACGAAGTCA (double strand) [Rec30-39 natural site]” showed an activity [3] of 50.6 % GFP+, an activity [4] of 42 % GFP+ and an activity [5] of 21.3 % GFP+. It also gave an activity [6] of 60 % GFP+, an activity [7] of 52 % GFP+ and an activity [8] of 44.2 % GFP+. For the same sequence, the activity [9] was 51 % GFP+, the activity [10] was 44.5 % GFP+ and the activity [11] was 32.1 % GFP+. It also gave an activity [12] of 40 % GFP+.
“TGCATATACATANNNNNNNNTATATATATGTA (double strand) [Rec15 natural site]” was tested, and the activity [13] was 5.91 % GFP+.
For “TGTGACTCCAGANNNNNNNNNTCTGGAGTCATA (double strand) [Rec82-83 natural site]”, the activity (Rec82) was 59 % GFP+ and the activity (Rec83) was 65.2 % GFP+.
